Laboratory results from patent US20250352661A1 (MYTHIC THERAPEUTICS, published 2025).

T1: Human LRRC15 Protein, His Tag (Acro Biosystems) (human, UniProt Q8TF66 22-538, limits assumed)
T1 construct: Bought protein with His tag
T1 sequence (looked up): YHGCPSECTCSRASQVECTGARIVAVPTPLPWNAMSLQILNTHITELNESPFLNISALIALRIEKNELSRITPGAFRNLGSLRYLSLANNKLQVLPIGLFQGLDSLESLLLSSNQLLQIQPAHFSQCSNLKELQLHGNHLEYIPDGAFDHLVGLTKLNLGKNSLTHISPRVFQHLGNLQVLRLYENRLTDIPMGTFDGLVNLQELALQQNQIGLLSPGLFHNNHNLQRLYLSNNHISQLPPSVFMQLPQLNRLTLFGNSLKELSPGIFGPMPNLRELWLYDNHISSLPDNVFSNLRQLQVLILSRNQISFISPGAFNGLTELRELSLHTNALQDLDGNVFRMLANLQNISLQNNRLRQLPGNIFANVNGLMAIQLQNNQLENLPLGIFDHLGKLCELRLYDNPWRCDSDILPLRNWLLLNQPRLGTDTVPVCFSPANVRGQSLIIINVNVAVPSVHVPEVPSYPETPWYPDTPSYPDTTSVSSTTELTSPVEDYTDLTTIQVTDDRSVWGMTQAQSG


Molecular target: T1, Human LRRC15 Protein, His Tag (Acro …)
Test: BLI; dissociation pH 7.4 black, pH 5.4 grey [1/2); D00013 FIG. 2B (1/2]

Row | Binder | binding result
1 | MYT5742 (antibody, V domains shown, Parent of the rabbit 24D9 scan; chimeric, rabbit variable domains with human constant regions; also called 24D9; chimeric 24D9 RabMAb) VH: QQQLVESGGGLVKPGASLTLTCKASGFSFSGSYWICWVRQAPGKGLEWIGCINGGSLDITYYASWAKGRFTISKASSTTVTLQKTSLTAADTATYFCASDTSYTAYGNFYFNLWGPGTLVTVSS VL: AQVLTQTASPVSAAVGGTVTINCQSSQSVLNNNWLAWYQQKPGQPPKLLIYDASSLASGVPSRFKGSGSGTQFTLTISDLESDDAATYYCQGEFSCGSADCNAFGGGTEVVVKG | binds
2 | MYT7890 (antibody, V domains shown, rabbit 24D9 VH I35H; chimeric, human constant regions) VH: QQQLVESGGGLVKPGASLTLTCKASGFSFSGSYWHCWVRQAPGKGLEWIGCINGGSLDITYYASWAKGRFTISKASSTTVTLQKTSLTAADTATYFCASDTSYTAYGNFYFNLWGPGTLVTVSS VL: AQVLTQTASPVSAAVGGTVTINCQSSQSVLNNNWLAWYQQKPGQPPKLLIYDASSLASGVPSRFKGSGSGTQFTLTISDLESDDAATYYCQGEFSCGSADCNAFGGGTEVVVKG | binds
3 | MYT7898 (antibody, V domains shown, rabbit 24D9 VH L57H; chimeric, human constant regions) VH: QQQLVESGGGLVKPGASLTLTCKASGFSFSGSYWICWVRQAPGKGLEWIGCINGGSHDITYYASWAKGRFTISKASSTTVTLQKTSLTAADTATYFCASDTSYTAYGNFYFNLWGPGTLVTVSS VL: AQVLTQTASPVSAAVGGTVTINCQSSQSVLNNNWLAWYQQKPGQPPKLLIYDASSLASGVPSRFKGSGSGTQFTLTISDLESDDAATYYCQGEFSCGSADCNAFGGGTEVVVKG | binds
4 | MYT7881 (antibody, V domains shown, rabbit 24D9 VH G26H; chimeric, human constant regions) VH: QQQLVESGGGLVKPGASLTLTCKASHFSFSGSYWICWVRQAPGKGLEWIGCINGGSLDITYYASWAKGRFTISKASSTTVTLQKTSLTAADTATYFCASDTSYTAYGNFYFNLWGPGTLVTVSS VL: AQVLTQTASPVSAAVGGTVTINCQSSQSVLNNNWLAWYQQKPGQPPKLLIYDASSLASGVPSRFKGSGSGTQFTLTISDLESDDAATYYCQGEFSCGSADCNAFGGGTEVVVKG | binds
5 | MYT7896 (antibody, V domains shown, rabbit 24D9 VH G55H; chimeric, human constant regions) VH: QQQLVESGGGLVKPGASLTLTCKASGFSFSGSYWICWVRQAPGKGLEWIGCINGHSLDITYYASWAKGRFTISKASSTTVTLQKTSLTAADTATYFCASDTSYTAYGNFYFNLWGPGTLVTVSS VL: AQVLTQTASPVSAAVGGTVTINCQSSQSVLNNNWLAWYQQKPGQPPKLLIYDASSLASGVPSRFKGSGSGTQFTLTISDLESDDAATYYCQGEFSCGSADCNAFGGGTEVVVKG | binds
6 | MYT7889 (antibody, V domains shown, rabbit 24D9 VH W34H; chimeric, human constant regions) VH: QQQLVESGGGLVKPGASLTLTCKASGFSFSGSYHICWVRQAPGKGLEWIGCINGGSLDITYYASWAKGRFTISKASSTTVTLQKTSLTAADTATYFCASDTSYTAYGNFYFNLWGPGTLVTVSS VL: AQVLTQTASPVSAAVGGTVTINCQSSQSVLNNNWLAWYQQKPGQPPKLLIYDASSLASGVPSRFKGSGSGTQFTLTISDLESDDAATYYCQGEFSCGSADCNAFGGGTEVVVKG | binds
7 | MYT7887 (antibody, V domains shown, rabbit 24D9 VH S32H; chimeric, human constant regions) VH: QQQLVESGGGLVKPGASLTLTCKASGFSFSGHYWICWVRQAPGKGLEWIGCINGGSLDITYYASWAKGRFTISKASSTTVTLQKTSLTAADTATYFCASDTSYTAYGNFYFNLWGPGTLVTVSS VL: AQVLTQTASPVSAAVGGTVTINCQSSQSVLNNNWLAWYQQKPGQPPKLLIYDASSLASGVPSRFKGSGSGTQFTLTISDLESDDAATYYCQGEFSCGSADCNAFGGGTEVVVKG | binds
8 | MYT7885 (antibody, V domains shown, rabbit 24D9 VH S30H; chimeric, human constant regions) VH: QQQLVESGGGLVKPGASLTLTCKASGFSFHGSYWICWVRQAPGKGLEWIGCINGGSLDITYYASWAKGRFTISKASSTTVTLQKTSLTAADTATYFCASDTSYTAYGNFYFNLWGPGTLVTVSS VL: AQVLTQTASPVSAAVGGTVTINCQSSQSVLNNNWLAWYQQKPGQPPKLLIYDASSLASGVPSRFKGSGSGTQFTLTISDLESDDAATYYCQGEFSCGSADCNAFGGGTEVVVKG | binds
9 | MYT7884 (antibody, V domains shown, rabbit 24D9 VH F29H; chimeric, human constant regions) VH: QQQLVESGGGLVKPGASLTLTCKASGFSHSGSYWICWVRQAPGKGLEWIGCINGGSLDITYYASWAKGRFTISKASSTTVTLQKTSLTAADTATYFCASDTSYTAYGNFYFNLWGPGTLVTVSS VL: AQVLTQTASPVSAAVGGTVTINCQSSQSVLNNNWLAWYQQKPGQPPKLLIYDASSLASGVPSRFKGSGSGTQFTLTISDLESDDAATYYCQGEFSCGSADCNAFGGGTEVVVKG | no binding (tested: 50 nM LRRC15)
10 | MYT7888 (antibody, V domains shown, rabbit 24D9 VH Y33H; chimeric, human constant regions) VH: QQQLVESGGGLVKPGASLTLTCKASGFSFSGSHWICWVRQAPGKGLEWIGCINGGSLDITYYASWAKGRFTISKASSTTVTLQKTSLTAADTATYFCASDTSYTAYGNFYFNLWGPGTLVTVSS VL: AQVLTQTASPVSAAVGGTVTINCQSSQSVLNNNWLAWYQQKPGQPPKLLIYDASSLASGVPSRFKGSGSGTQFTLTISDLESDDAATYYCQGEFSCGSADCNAFGGGTEVVVKG | binds

Continued, values first:

Row | binding result | Binder
11 | binds | MYT7883 (antibody, V domains shown, rabbit 24D9 VH S28H; chimeric, human constant regions) VH: QQQLVESGGGLVKPGASLTLTCKASGFHFSGSYWICWVRQAPGKGLEWIGCINGGSLDITYYASWAKGRFTISKASSTTVTLQKTSLTAADTATYFCASDTSYTAYGNFYFNLWGPGTLVTVSS VL: AQVLTQTASPVSAAVGGTVTINCQSSQSVLNNNWLAWYQQKPGQPPKLLIYDASSLASGVPSRFKGSGSGTQFTLTISDLESDDAATYYCQGEFSCGSADCNAFGGGTEVVVKG
12 | binds | MYT7882 (antibody, V domains shown, rabbit 24D9 VH F27H; chimeric, human constant regions) VH: QQQLVESGGGLVKPGASLTLTCKASGHSFSGSYWICWVRQAPGKGLEWIGCINGGSLDITYYASWAKGRFTISKASSTTVTLQKTSLTAADTATYFCASDTSYTAYGNFYFNLWGPGTLVTVSS VL: AQVLTQTASPVSAAVGGTVTINCQSSQSVLNNNWLAWYQQKPGQPPKLLIYDASSLASGVPSRFKGSGSGTQFTLTISDLESDDAATYYCQGEFSCGSADCNAFGGGTEVVVKG
13 | binds | MYT7892 (antibody, V domains shown, rabbit 24D9 VH C51H; chimeric, human constant regions) VH: QQQLVESGGGLVKPGASLTLTCKASGFSFSGSYWISWVRQAPGKGLEWIGHINGGSLDITYYASWAKGRFTISKASSTTVTLQKTSLTAADTATYFCASDTSYTAYGNFYFNLWGPGTLVTVSS VL: AQVLTQTASPVSAAVGGTVTINCQSSQSVLNNNWLAWYQQKPGQPPKLLIYDASSLASGVPSRFKGSGSGTQFTLTISDLESDDAATYYCQGEFSCGSADCNAFGGGTEVVVKG
14 | binds | MYT7897 (antibody, V domains shown, rabbit 24D9 VH S56H; chimeric, human constant regions) VH: QQQLVESGGGLVKPGASLTLTCKASGFSFSGSYWICWVRQAPGKGLEWIGCINGGHLDITYYASWAKGRFTISKASSTTVTLQKTSLTAADTATYFCASDTSYTAYGNFYFNLWGPGTLVTVSS VL: AQVLTQTASPVSAAVGGTVTINCQSSQSVLNNNWLAWYQQKPGQPPKLLIYDASSLASGVPSRFKGSGSGTQFTLTISDLESDDAATYYCQGEFSCGSADCNAFGGGTEVVVKG
15 | binds | MYT7886 (antibody, V domains shown, rabbit 24D9 VH G31H; chimeric, human constant regions) VH: QQQLVESGGGLVKPGASLTLTCKASGFSFSHSYWICWVRQAPGKGLEWIGCINGGSLDITYYASWAKGRFTISKASSTTVTLQKTSLTAADTATYFCASDTSYTAYGNFYFNLWGPGTLVTVSS VL: AQVLTQTASPVSAAVGGTVTINCQSSQSVLNNNWLAWYQQKPGQPPKLLIYDASSLASGVPSRFKGSGSGTQFTLTISDLESDDAATYYCQGEFSCGSADCNAFGGGTEVVVKG
16 | binds | MYT7891 (antibody, V domains shown, rabbit 24D9 VH C36H; chimeric, human constant regions) VH: QQQLVESGGGLVKPGASLTLTCKASGFSFSGSYWIHWVRQAPGKGLEWIGSINGGSLDITYYASWAKGRFTISKASSTTVTLQKTSLTAADTATYFCASDTSYTAYGNFYFNLWGPGTLVTVSS VL: AQVLTQTASPVSAAVGGTVTINCQSSQSVLNNNWLAWYQQKPGQPPKLLIYDASSLASGVPSRFKGSGSGTQFTLTISDLESDDAATYYCQGEFSCGSADCNAFGGGTEVVVKG
17 | binds | MYT7894 (antibody, V domains shown, rabbit 24D9 VH N53H; chimeric, human constant regions) VH: QQQLVESGGGLVKPGASLTLTCKASGFSFSGSYWICWVRQAPGKGLEWIGCIHGGSLDITYYASWAKGRFTISKASSTTVTLQKTSLTAADTATYFCASDTSYTAYGNFYFNLWGPGTLVTVSS VL: AQVLTQTASPVSAAVGGTVTINCQSSQSVLNNNWLAWYQQKPGQPPKLLIYDASSLASGVPSRFKGSGSGTQFTLTISDLESDDAATYYCQGEFSCGSADCNAFGGGTEVVVKG
18 | binds | MYT7895 (antibody, V domains shown, rabbit 24D9 VH G54H; chimeric, human constant regions) VH: QQQLVESGGGLVKPGASLTLTCKASGFSFSGSYWICWVRQAPGKGLEWIGCINHGSLDITYYASWAKGRFTISKASSTTVTLQKTSLTAADTATYFCASDTSYTAYGNFYFNLWGPGTLVTVSS VL: AQVLTQTASPVSAAVGGTVTINCQSSQSVLNNNWLAWYQQKPGQPPKLLIYDASSLASGVPSRFKGSGSGTQFTLTISDLESDDAATYYCQGEFSCGSADCNAFGGGTEVVVKG
19 | binds | MYT7893 (antibody, V domains shown, rabbit 24D9 VH I52H; chimeric, human constant regions) VH: QQQLVESGGGLVKPGASLTLTCKASGFSFSGSYWICWVRQAPGKGLEWIGCHNGGSLDITYYASWAKGRFTISKASSTTVTLQKTSLTAADTATYFCASDTSYTAYGNFYFNLWGPGTLVTVSS VL: AQVLTQTASPVSAAVGGTVTINCQSSQSVLNNNWLAWYQQKPGQPPKLLIYDASSLASGVPSRFKGSGSGTQFTLTISDLESDDAATYYCQGEFSCGSADCNAFGGGTEVVVKG
